B1: HDV Ribozyme (parent)
chain: GGCCGGCAUGGUCCCAGCCUCCUCGCUGGCGCCGGCUGGGCAACAUUCCGAGGGGACCGUCCCCUCGGUAAUGGCGAAUGGGACCCA

Variants of: B1
Assay: self-cleavage, relative activity (ratio to wild type); higher = more cleavage; co-transcriptional

Variant | self-cleavage
U60C G80U | 0.157
U60G U69G | 0.755
C61U C66U | 0.736
C61U G81A | 0.44
U60G C66G | 1.05
U60C G73A | 0.815
C62G C75U | 0.189
C62G G67A | 0.095
C62G G76A | 1.02
U60C C86G | 0.982
C61G A71U | 0.997
C61G A71G | 0.808
C61A A78U | 0.131
C61G G82U | 0.271
U60G C61U | 1.06
U60G C61A | 1.11
C61G C86U | 0.772
C61G C86G | 0.941
U60G U79C | 0.203
U60A C75A | 0.0811
U60A C75U | 0.253
U60G A87U | 0.906
C61G G81A | 0.219
C61G G81C | 0.262

Variant | self-cleavage
C61U A77C | 0.65
C62G U65C | 0.427
U60C U65A | 1.27
C61A G76U | 1.05
C62U A70U | 0.831
C62U A70C | 0.734
C62A C86G | 0.975
C62A C86U | 1.03
U60A G80C | 0.0354
C61G C64U | 0.755
C61G G67A | 0.743
C61G A87C | 0.983
U60G G82A | 0.6
C62A C64G | 0.142
C62A C64A | 0.332
C61A U65C | 0.909
U60C C66G | 1.02
C62U A71U | 1.05
C62G G81C | 0.208
U60C | 1.01
U60G | 0.978
U60G A71G | 0.831
C61G G68U | 0.964
C61G C84A | 0.708

Variant | self-cleavage
U60C C75U | 0.203
U60C A71C | 1.27
C62G G82U | 0.0923
C62A G80U | 0.16
U60G C86G | 1.14
U60C U69C | 1.2
U60C U69A | 0.802
C61A G68C | 0.873
U60G G74C | 0.443
U60G G74A | 0.227
U60A G67A | 0.95
U60A G67U | 0.818
U60A G67C | 1.03
C62A G74A | 0.619
C62A G74U | 0.367
C61U A83C | 0.378
C61A C84G | 0.795
C61G U65A | 0.639
C61A U69G | 1.03
C61A U69A | 1.09
C62A G81C | 0.138
U60G G68U | 0.762
U60C A83G | 0.707
U60G G80U | 0.277

Variant | self-cleavage
C61G A70C | 0.944
C62A C84U | 0.618
U60A G76C | 0.973
U60A G76U | 1.01
C62A C85U | 1.05
C62A A71C | 0.85
C62A A71G | 1.03
C61A G81C | 0.287
U60A U69C | 1.08
C61A A71U | 0.784
C61A A71G | 1.11
C62U A77G | 0.831
C61U C86A | 0.812
C61U U72G | 0.567
U60G G73A | 0.591
U60C C62A | 1.01
C61U G82A | 0.325
C62G C86U | 0.923
C62G C86A | 0.752
C61G C63G | 0.481
U60C A78G | 0.935
U60G A70U | 0.969
C62G A70U | 0.665
U60A G68C | 0.791

Variant | self-cleavage
U60G C64G | 0.919
U60G C64U | 0.897
C61U A87C | 0.784
C61U A87G | 0.933
C61U C84G | 0.589
C61U C84A | 0.992
U60A G74U | 0.521
U60A G74C | 0.225
U60G G67C | 0.98
U60G G67A | 0.91
U60C C84A | 0.698
U60C C84U | 0.918
U60C G81A | 0.604
U60A C84G | 0.475
C61U U69G | 0.864
U60A G82A | 0.373
C62A C63G | 0.7
C62U A83C | 0.359
C62G A77C | 0.353
C62G A77G | 0.745
U60G G76C | 1.09
C62U A78C | 0.0936
C62U A78U | 0.282
C62G G68U | 0.425

Variant | self-cleavage
C62G G68A | 0.199
U60G A83C | 0.612
U60G U72C | 0.489
C61A G82A | 0.46
C62G G73A | 0.534
C62G G73C | 0.446
C61U U65C | 0.914
U60C C61U | 0.718
C61U C63U | 0.958
U60G A78U | 0.178
U60G A78G | 0.72
U60G A78C | 0.151
C61U C64U | 1.2
C62A G76C | 1.02
U60G C62U | 1.05
U60A G73U | 0.475
C61U G67U | 0.842
C62A C75G | 0.0519
C62A A83C | 0.315
C62G A71G | 0.346
C61G G76A | 0.906
U60C C63G | 1.09
C61U U79C | 0.487
C62G C66U | 0.554

Variant | self-cleavage
C61A C62U | 1.01
C61A A83G | 0.997
U60C A87U | 0.921
U60C A87G | 1.03
U60C G67C | 0.554
C61A A77C | 0.527
C62A G68C | 0.883
C62G C85A | 0.717
C62G C85U | 0.902
C62A U79G | 0.862
U60A C86A | 0.577
C62G A83C | 0.253
U60C C64U | 0.895
U60G C63A | 0.831
C61U G73A | 0.547
C62G A87U | 0.716
C62G A87C | 0.661
C62G C84A | 0.712
C62G C84U | 0.846
C61A A70C | 1.01
C61A A70U | 1.17
C61U A78G | 0.87
U60C A70U | 1.15

Reference: the RNAGym collection of RNA variant scans (doi:10.7554/elife.80360)
